Reference: the domain aggregation screens of Martell et al. (2025)

experiment: soluble fraction after stress (log2 fold change); higher = more stays soluble; pooled small domains, quantitative proteomics; settings: stress: 50 degC
In short: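 Pooled custom libraries of small protein domains were measured in a high-throughput format, with quantitative proteomics as the read-out. Each library was stressed at 50°C. Aggregation propensity is given as the base-two logarithm of the fold change in how much of each protein stays soluble after the stress. Higher values mean a larger share of the protein remains in solution.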

Sequence	soluble fraction (log2)
HMERYSVQVGSFRNMRYAERLKQELQGEDFPAYIEKSGEFNRVRVGKGLTLEEATQLEQVLRKSGYQTVIV	-0.395
HMSKSENLYSAARELIPGGVNSPVRAFTGVGGTPLFIEKADGAYLYDVDGKAYIDYVGSWGPMVLGHNHP	0.0101
HMETALYVEDLDRAVRFYESVMGLNTMSRGVRLVALDAGEGTVLLLFLRGATTSGASFEGGWIPPH	-0.0244
HMEPTAEQLKAIRQFASVNGRSWKSELRYLWETGAYHRAALGGADPGYLQQVRNQFGPGWLRAFKISK	-0.852
HMGQQPPVTEIYKNHDGNKDGLLEAGEVTGSRYARQFPRWDVNGDQKVSPQEVIAFRKRFGIAADGTLL	-0.0225
HMDPVQLEVIKKLNLLNAQKPKDIYALRDVLSEMFPQSDIRLLLKELLDKGYIYWNGHEVIYSHEMF	-0.217
HMPREQQENVYLLEKAKRLYEEYLGDQRQTIGHALAQFERVLESQDPAAIRRAQKEFGEFLERYDG	0.102
HMNGYGALVRLGRSRGWVTVEEINDHLPESAVRTAENVQEITEALGRLSIKVFETRPDEDDLLIT	-0.0632
HMTDAYEVLDLNREASDEEIKKRYRELIREHHPDTLIAKGVPQEFVDLANDKMAAINAAYDRIEKDRGL	0.279
HMEITSSNELKKMISNLINSENKNNPISDSNIVEKLKENDFLVARRTVAKYRKLLGIKNVNQRKE	-0.112
HMGETPEILRDWEAAQNAVNDMLSKYAPGGYMGKIIYPLLTPLKERLEAGERTPDLYNAIVEAT	0.0804
HMKKTETVRFTTNVTHGTKIKETDVEVVKISNSALPDKVVKNKTEVIGKYATADLFKGDFATENKVTD	0.0533
HMRKIKEVLRLKFETGFSHERIAAAVGVSKGAVTKYVQRAVAAGLGWPLAPERDDAALEALLFPH	≥ 0.62
HMDEKPPHEALSNREFQVLQLLAQGRSVGQIAQQLTLSANTISTYRARIFDKLGLHNPADLFSYAARHRLT	-0.273
HMARTTIATPWDKINDLLQGGLGNGDFGLIFGNPGGGKSWSLVALGGFAVKLGYNVIHYTLE	-0.054
HMTEEELLERLDAVITEYKGKPGALIPVLQLAQGIFGYLPEVALKHIARQLDKPYSEVAGVVSFYSFFTT	0.0488
HMDGVSAEAVKSHIKTLIDGEGAKILSDDTLVDLLNAKGFDIARRTVAKYREAMGIGSSVQRRRQKKMG	0.178
HMRSNADALIGRTARVSQTIVENGFGRVALDGDDWKAQAADGSRIEEGQNVIVKDRDSIILTVEKE	0.074
HMGKAPREVQVGELLRVPALNAEGEVLRRDGESVELSIQGKKLRLPLAQLEAFSPRRFARRGEGKVRGRIE	0.432

Sequence	soluble fraction (log2)
HMDIAYFSNAELNDAFIQFLNMRQEAGKQLNGYQIQILTEKLERVADTDEDRISAVKNAIAGGWSNFYPPK	-0.272
HMNGAITLRVRPSDEGKRLDVFVVSQLTGYTRSFVAGLIGDRHFLVNGQPKKPGYRIKSSDTISGVIPAPA	-1.21
HMANTSAVIKQPGLVKLFAQHFVRNGFNAMKAAEAAGFVRPSPTFVRNLADSKPVKDAISELLGPYNDA	-0.0131
HMKPTGWVRGDMGVVDKGQLSITQGTVNVRSGPGLSYEILDQVRRGDRFPVIKSQSGWHNISM	0.0818
HMTSKTLSADGGENTRLDKFLSNHLPEISRTKIQKMINDGLVYVNQNYAKASLVLDGTELISYTIPD	0.0679
HMKEQLEAYVNRLFADAALTIRNAEVRQEILQHALDRYDDLIASGKTEQEAYDETVSGIGDVSGLYEHK	-0.195
HMAIDVQELARTRLRSLRTTLGYSLDELAARTHLSPSTISRLETGKRSLSLDVVVPLAQALHVSLDVLFEA	-2.68
HMEDWTPERFVGAFVSGGPALRDEILLAATKDLSHAQATRLLKLAEARGLVHRSQPGPSERVRFVVARK	-0.258
HMEEVVIPDLAGLTEEEATKVLMAKELKLKVSGSQHSDIEKGLIISQDPPAGEKGAKNSQVAVVTSSG	0.103
HMDTEIGDILALRQIMELLDEKDRQLIIMRYFQGLTQSVTAKNLNMTQVQVSRREKKLLTFMREQLL	-0.739
HMPSPEMLKETEKRKAEEIYRSQINLFIDDYHRLKGQYPLLEDIIDNKKDSIPIEILREISISILKNYFE	-0.242
HMVSYTLPTLHTGKNWYVDFTAYDPAEQKMKRKKYMLDGISKITERRKRAVDIIATVTARLRSGWNPWA	-2.7
HMQVTIGADLAEHAARLDVQISDVVKLIKSGVSEGEIKVGLTKLETRLAHPELALVENKLAYLKALIAES	-0.243
HMLHPLLWAVDEPTPVTVRTRPEYVPDVVRWLMQPESQREHDGVVDLRYTVTHRAAFRSRIYVLGTRVTIP	-0.112
HMRDSWNEATKEKRYTEAYDALNSALKKTPATPHALSDALWIARELGRTNEEVQRLEWRLYALLTWIS	0.0708
HMEQPPVPSVSITAALGSAVARRLAPHGFQKMPDLVDAYRAGKLAQISGIGGTTLDLIREWLTANARQQ	0.0154
HMEDYTPLQELGLKARYIELLEKGGIFSVEDLVQKSVDDLKDIDGIGEKTAKEIWEIVDSMVDF	-0.137
HMGQYLDAATVAAVYHAYHARNWTQATLAKELKVARPTLSNVLNGREAPSVELAARIRAFLGSPEP	-1.66
